Legend:
Mice, C3H/HeN = experiment: In vivo stimulation of bone formation in mice, subcutaneous administration; set-up: species or system mouse; conditions: 100 micrograms subcutaneously once a day for nine days, vs GST control
Description: In vivo stimulation of bone formation in mice. Mice, C3H/HeN (Harlan, Indianapolis, Ind.) were administered 100 micrograms GST (control) or 100 micrograms GST-RANKL as obtained in Example 1, subcutaneously, once a day for nine days. […] Upper panels illustrate metaphyseal bone, which is shown at higher magnification in lower panels. […] Dual-energy X-ray absorptiometry (DEXA) analysis of GST or GST-RANKL administered mice was also conducted using standard procedures.

p38 [1] = experiment: Western blot of p38 phosphorylation in murine osteoblasts; type: cell-based
Description: (§1) GST-RANKL-induced activation of MAP kinases is prolonged in murine osteoblasts. Primary osteoblasts were isolated from neonatal murine calvaria by sequential enzymatic digestion. Briefly, calvaria were minced and incubated at room temperature for 20 minutes with gentle shaking in an enzymatic solution containing 0.1% collagenase, 0.05% trypsin, and 4 mM NA2EDTA in calcium- and magnesium-free phosphate buffered saline (PBS). This procedure was repeated to yield a total of six digests. The cells isolated from the last four to six digests were cultured in MEM containing 15% FBS, 50 μM ascorbic acid, and 10 mM β-glycerophosphate. Cells were maintained at 37° C. in a humidified atmosphere containing 6% C02, with daily replenishment of media and cytokines.
(§2) Following treatment with GST-RANKL at the indicated times and dosages, cells were lysed in RIPA buffer containing 10 mM Tris-HCl pH 7.4, 150 mM NaCl, 1% Nonidet P-40, 0.2% sodium deoxycholate, and 1 mM EDTA, with 1 mM Na3PO4, 1 mM NaF, and 1×protease inhibitor cocktail added immediately prior to use. Protein concentration was quantitated and standardized by Micro BCA Protein Assay (Pierce). […] Levels of total and phosphorylated ERK, JNK, p38, Akt, and IkBα were determined using primary and secondary antibodies according to the manufacturer's established protocols, with conventional chemiluminiscent detection. […]

ERK [2] = experiment: Western blot of ERK phosphorylation in murine osteoblasts; type: cell-based
Description: as §1
(§3) Following treatment with GST-RANKL at the indicated times and dosages, cells were lysed in RIPA buffer containing 10 mM Tris-HCl pH 7.4, 150 mM NaCl, 1% Nonidet P-40, 0.2% sodium deoxycholate, and 1 mM EDTA, with 1 mM Na3PO4, 1 mM NaF, and 1×protease inhibitor cocktail added immediately prior to use. Protein concentration was quantitated and standardized by Micro BCA Protein Assay (Pierce). Lysates were denatured by heat in Laemmli buffer, resolved by SDS-PAGE, and transferred onto nitrocellulose. Levels of total and phosphorylated ERK, JNK, p38, Akt, and IkBα were determined using primary and secondary antibodies according to the manufacturer's established protocols, with conventional chemiluminiscent detection. Membranes were stripped between hybridizations in PBS containing […] β-mercaptoethanol and 2% SDS.

p38 [3] = experiment: Western blot of p38 phosphorylation in murine osteoclast precursors; type: cell-based
Description: (§4) GST-RANKL rapidly activates MAP kinases in murine osteoclast precursors. Wild type C57BL/6 mice were purchased from Harlan Industries (Indianapolis, Ind.). For the isolation of osteoclast precursors, bone marrow macrophages (BMMs) were isolated from whole bone marrow of four to six week old mice and incubated in tissue culture dishes at 37° C. in 5% CO2. After 24 hours in culture, the non-adherent cells were collected and layered on a Ficoll Hypaque gradient and the cells at the gradient interface were collected. Cells were replated at 65,000/cm^2 in α-minimal essential medium, supplemented with 10% heat inactivated fetal bovine serum, at 37° C. in 5% CO2 in the presence of recombinant mouse M-CSF (10 ng.ml). Cells were treated with GST-RANKL on day 4 or 5. In the experiments addressing the activation of Akt, the cells were cultured in serum and M-CSF free medium for 24 hours prior to GST-RANKL stimulation.
(§5) Immunoblotting (Western blotting) of osteoclast precursors was performed according to the following instructions. Cytokine-treated or control monolayers of BMMs were washed twice with ice-cold PBS. Cells were lysed in the buffer containing 20 mM Tris (pH 7.5),150 mM NaCl, 1 mM EDTA, 1 mM EGTA, 1% Triton X-100, 2.5 mM sodium pyrophoshate, 1 mM β-glycerophosphate, 1 mM Na3PO4, 1 mM NaF, and 1×protease inhibitor cocktail. Fifty μg of cell lysates were boiled in the presence of SDS sample buffer (0.5 M Tris-HCl, pH 6.8, 10% w/v SDS, 10% glycerol, 0.05% w/v bromphenol blue) for 5 minutes and separated on SDS-PAGE, using 8% gels. Proteins were transferred to nitrocellulose membranes using a semi-dry blotter (Bio-Rad, Richmond, Calif.) and incubated in blocking solution (5% non-fat dry milk in tris-buffered saline containing 0.1% Tween 20) for 1 hour to reduce nonspecific binding. Membranes were then exposed to primary antibodies overnight at 4° C., washed three times, and incubated with secondary goat anti-mouse or rabbit IgG horseradish peroxidase-conjugated antibody for 1 hour. […]

Akt [4] = experiment: Western blot of Akt phosphorylation in murine osteoclast precursors; type: cell-based
Description: as §4
(§6) Immunoblotting (Western blotting) of osteoclast precursors was performed according to the following instructions. Cytokine-treated or control monolayers of BMMs were washed twice with ice-cold PBS. Cells were lysed in the buffer containing 20 mM Tris (pH 7.5),150 mM NaCl, 1 mM EDTA, 1 mM EGTA, 1% Triton X-100, 2.5 mM sodium pyrophoshate, 1 mM β-glycerophosphate, 1 mM Na3PO4, 1 mM NaF, and 1×protease inhibitor cocktail. […]

c-Fos = experiment: Western blot of c-Fos activation following GST-RANKL treatment of cells; type: cell-based; conditions: osteoblasts and osteoblast precursor cells; FIG. 9, 0-120 minutes
Description: Time points at which activation was measured were 0, 30, 60 and 120 minutes following exposure of cells to GST-RANKL. B-actin was used as a control.

ERK [5] = experiment: Western blot of ERK phosphorylation in murine osteoclast precursors; type: cell-based
Description: as §4, §5

JNK [6] = experiment: Western blot of JNK phosphorylation in murine osteoblasts; type: cell-based
Description: as §1, §2

[7] = test system: Primary calvarial osteoblasts; experiment: Alkaline phosphatase (AP) activity in osteoblasts following GST-RANKL exposure; type: cell-based; conditions: 50 ng/ml
Description: AP activity following RANKL exposure in osteoblasts. Primary calvarial osteoblasts were cultured in MEM containing 15% FBS, 50 μM ascorbic acid, and 10 mM β-glycerophosphate. Cells were maintained at 37° C., with daily replenishment of media and cytokines. Osteoblast alkaline phosphatase (AP) activity, a direct measure of osteoblast differentiation and function, was quantitated by addition of a calorimetric substrate, 5.5 mM p-nitrophenyl phosphate. The cells were then exposed to GST-RANKL, administered in different regimens. Pulsatile exposure to 50 ng/ml GST-RANKL was provided as 1, 3, 6, 8, or 24 hours of total exposure per 48-hour treatment window. After 4 such 48-hour treatments, AP activity was quantitated (±S.D.) and normalized to total protein levels.

ERK1/2 = experiment: Western blot of ERK1/2 activation in murine osteoblast precursors; type: cell-based
Description: as §1, §3
GST-RANKL-induced ERk1/2 activation is prolonged in murine osteoblast precursors. Osteoblast precursors were isolated and maintained according to the procedures set forth in Example 5. The immunoblotting was performed in the same manner as immunoblotting in Example 3.

JNK [8] = experiment: Western blot of JNK phosphorylation in murine osteoclast precursors; type: cell-based; conditions: after GST-RANKL stimulation
Description: as §4, §6

Mice = experiment: In vivo stimulation of bone formation in mice, intramedullary femur injection, DEXA; set-up: species or system mouse; conditions: 100 micrograms intramedullary once a day for nine days; versus GST control; day 9
Description: In vivo stimulation of bone formation in mice results in 24% increase. Mice were anesthetized with a Ketamine/Xylazine cocktail (10 mg/kg ketamine and 10 mg/kg xylazine IP) and placed in left lateral recumbancy. The major trochanter and lateral femoral condyle of the right femur were identified and the intramedullary injection site was equidistant between these landmarks. Injections of 100 micrograms GST (control) or 100 micrograms GST-RANKL were made once a day for nine days with 29 gauge needles on tuberculin syringes.
On day 9 the mice were re-anesthetized with Ketamine/Xylazine cocktail (10 mg/kg ketamine and 10 mg/kg xylazine IP) and dual energy x-ray absorptiometry (DEXA, Piximus) analysis was done on each animal. Plain radiographs were taken immediately following DEXA analysis (Faxitron, KV 0.15, time=20 sec). Animals were sacrificed by CO2 asphyxiation and both femurs harvested for histological analysis. The femurs were fixed in 10% buffered formalin for 48 hours and decalcified for 1 week. The results, showing a 24% increase in bone density of the femur of GST-RANKL treated mice versus the control, are shown in FIG. 10.

Akt [9] = experiment: Western blot of Akt phosphorylation in murine osteoblasts; type: cell-based
Description: as §1, §2

IkBα = experiment: Western blot of IkBα phosphorylation in murine osteoblasts; type: cell-based
Description: as §1, §2

[10] = test system: Neo-natal mouse calvariae; experiment: Ex vivo stimulation of bone formation in whole calvarial organ culture; type: cell-based
Description: One commonly used assay is a neonatal mouse calvaria assay. Briefly, four days after birth, the front and parietal bones of ICR Swiss white mouse pups are removed by microdissection and split along the sagittal suture. The bones are then incubated in a specified medium, wherein the medium contains either test or control compounds. Following the incubation, the bones are removed from the media, and fixed in 10% buffered formalin for 24-48 hours, decalcified in 14% EDTA for 1 week, processed through graded alcohols, and embedded in paraffin wax. Three micron sections of the calvaria are prepared and assessed using histomorphometric analysis of bone formation or bone resorption. Bone changes are measured on sections cut 200 microns apart. […]
Ex vivo stimulation of bone formation in whole calvarial organ culture. […] Purified GST-RANKL was then assayed for endotoxin contamination by limulus amoebocyte lysate assay, and quantitated for bioactivity by an in vitro osteoclastogenesis readout.
Test compositions were administered for-a period of 12 hours only at the initiation of the culture (1×) or once at initiation and once three days later, again for a duration of 12 hours (2×). After seven days, calvarial thickness was determined histomorphometrically and compared among the various control and experimental groups to assess bone formation. […]

[11] = after RANK/GST-RANKL interaction

B1: GST-RANKL: fusion protein of glutathione S-transferase (GST) and murine RANKL residues 158-316, expressed in Escherichia coli, affinity purified (protein)
chain: KPEAQPFAHLTINAASIPSGSHKVTLSSWYHDRGWAKISNMTLSNGKLRVNQDGFYYLYANICFRHHETSGSVPTDYLQLMVYVVKTSIKIPSSHNLMKGGSTKNWSGNSEFHFYSINVGGFFKLRAGEEISIQVSNPSLLDPDQDATYFGAFKVQDID
modifications: left off: a dimerising Fc or GST
bone mineral density (DEXA) (Mice, C3H/HeN; tibial metaphyses): significant increase
bone mass (histological examination of tibia) (Mice, C3H/HeN): marked increase
cortical thickness (Mice, C3H/HeN): massive increase
numbers of activated osteoblasts (histological examination of tibia) (Mice, C3H/HeN): net increase
p38 activation at the time of GST-RANKL stimulation (p38 [1]): detectable
duration for which p38 activation could be detected (p38 [1]; after stimulation): at least 60 minutes
time at which ERK activation could still be detected (ERK [2]; after GST-RANKL stimulation): 60 min
time by which both ERKs were activated (ERK [2]; after GST-RANKL stimulation): ≤ 5 min
time of peak ERK activation (ERK [2]; [11]): 10 min
time at which p38 phosphorylation was detected (p38 [3]; after GST-RANKL stimulation): 5 min
time of peak p38 phosphorylation (p38 [3]; [11]): 10 min
time at which p38 phosphorylation was undetectable (p38 [3]; after the interaction): 30 min
Akt phosphorylation at the time of GST-RANKL stimulation (Akt [4]; 0 minutes): detectable phosphorylation
time of peak Akt activation (Akt [4]; after GST-RANKL stimulation): 15 min
activation of c-Fos (c-Fos): prolonged activation
time at which ERK phosphorylation was detected (ERK [5]; after GST-RANKL stimulation): 5 min
time of peak ERK phosphorylation (ERK [5]; [11]): 10 min
time at which ERK phosphorylation was undetectable (ERK [5]; after the interaction): 30 min
JNK activation at the time of GST-RANKL stimulation (JNK [6]): detectable
duration for which JNK activation could be detected (JNK [6]; after stimulation): at least 60 minutes
exposure window giving the maximum anabolic effect (AP activity) ([7]; 1, 3, 6, 8 or 24 hours exposure per 48-hour window, 4 treatments): 8 h
AP activity ([7]; administered in an intermittent fashion): increase
time of peak kinase activation as stated in the description (ERK1/2; osteoblast precursor cells, GST-RANKL stimulation): 5 to 10 min
time up to which ERK activation increased (length of the assay) (ERK1/2; osteoblast precursors): 60 min
time at which ERK activation was first detected (ERK1/2; osteoblast precursors, after GST-RANKL stimulation): 10 min
time at which JNK was phosphorylated (JNK [8]): 15 min
time by which phosphorylated JNK was undetectable (JNK [8]): ≤ 30 min
increase in bone density of the femur (DEXA) (Mice): 24%
Akt activation at the time of GST-RANKL stimulation (Akt [9]): detectable
duration for which Akt activation could be detected (Akt [9]; after stimulation): at least 60 minutes
time until which IkBα phosphorylation increased (end of the assay) (IkBα): 60 min
time at which IkBα phosphorylation was detected (IkBα; after stimulation): 10 min
calvarial thickness at the highest dose tested ([10]; 100 ng/ml, after seven days): doubled
calvarial thickness ([10]; administered 1× or 2× for 12 hours, histomorphometry after seven days): dose-dependent increase
